Consider 7 molecules from patent publication US20210292393A1.

Holding throughout (conditions): remark: other sources report otherwise
The target of experiment [1] is SARS-CoV-2 full length spike protein, V483A mutant, expressed on CHO cells (SARS-CoV-2), P0DTC2.
The target in experiment [2] is SARS-CoV-2 full length spike protein, V367F mutant, expressed on CHO cells (SARS-CoV-2), P0DTC2.
The target in experiment [3] is SARS-CoV-2 full length spike protein, D614G mutant, expressed on CHO cells (SARS-CoV-2), P0DTC2.
Experiment [4] concerns the target SARS-CoV-2 full length spike protein, V483A mutant (SARS-CoV-2), P0DTC2.
In experiment [5] the target is SARS-CoV-2 full length spike protein, V367F mutant (SARS-CoV-2), P0DTC2.
Experiment [6] addresses SARS-CoV-2 full length spike protein, V483A mutant, expressed on the surface of CHO cells (SARS-CoV-2), P0DTC2.

Several values for one entry are separate records, joined by “and”; a condition that tells them apart may be missing. Equal values may be shown once.

B1: antibody 499 (antibody, V domains shown)
VH: EVQLVESGGGLVKPGGSLRLSCAASGFTFSSYSMNWVRQAPGKGLEWVSSISSSSSYIYYADSVKGRFTISRDNAKNSLYLQMNSLRAEDTAVYYCARAPAGIVVGPDYWGQGTLVTVSS
VL: NFMLTQPHSVSESPGKTVTISCTGSSGSIASNYVQWYQQRPGSAPTTVIFEDNQRPSGVPDRFSGSIDSSSNSASLTISGLKTEDEADYYCQSYHSSNPHVVFGGGTKLTVL
For B1, the median fluorescence intensity, fold over isotype control (fold over isotype) was 4.39 and 2.6 in experiment [1]; 1.18 in experiment [2]; 4.3 in experiment [3].

B2: antibody 269 (antibody, V domains shown)
VH: QLQLQESGPGLVKPSETLSLTCTVSGGSISSSSYYWGWIRQPPGKGLEWIGNIYYSGSTYYNPSLKSRVTISVDTSKNQFSLKLSSVTAADTAVYYCAGEELDIVATIYSSRYYYYGMDVWGQGTTVTVSS
VL: QSALTQPASVSGSPGQSITISCTGTSSDVGGYNYVSWYQQHPGKAPKLMIYEVSNRPSGVSNRFSGSKSGNTASLTISGLQAEDEADYYCSSYTSTSTLVFGGGTKLTVL
With B2, the median fluorescence intensity, fold over isotype control (fold over isotype) in experiment [4] was 22.8 and 11.6; in experiment [5], 25.4.

B3: antibody 322 (antibody, V domains shown)
VH: EVQLVESGGGLVQPGGSLRLSCAASGFTFSSYWMSWVRQAPGKGLEWVANIKQDGSEKYYVDSVKGRFTISRDNAKNSLYLQMNSLRAEDTAVYYCARDEDVAAALDYWGQGTLVTVSS
VL: SYVLTQPPSVSVAPGKTARITCGGNNIGSKSVHWYQQKPGQAPVLVIYYDSDRPSGIPERFSGSNSGNTATLTISRVEAGDEADYYCQVWDSSSDHPERVFGGGTKLTVL
The molecule B3 registered a median fluorescence intensity, fold over isotype control (fold over isotype) in experiment [6] of 4.95.

B4: antibody 362 (antibody, V domains shown)
VH: QVQLVESGGGVVQPGRSLRLSCAASGFNLSNYAMHWVRQASGKGLEWVSLISYDGSVKYYTDSVKGRFTVSGDNSKNTLFLQMNSLRPDDSALYYCVRGGVSGPNSFDMWGQGTTVTVSS
VL: DVVMTQSPLSLPVTLGQPATISCRSSQSLVYSDGNTYVNWFQQRPGQSPRRLIYQVSIRASGVPDRFSGSGSGTDFALKISRVEAEDVGVYYCMQGTHWPVTFGQGTKVEIK
Molecule B4 registered a median fluorescence intensity, fold over isotype control (fold over isotype) in experiment [6] of 10.3.

B5: antibody 495 (antibody, V domains shown)
VH: QITLKESGPTLVKPTQTLTLTCTFSGFSLSTSGVGVGWIRQPPGKALEWLALIYWDDDKRYSPSLKSRLTITKDTSKNQVVLIMTNMDPVDTATYYCAHRDSSSWFDLDAFDIWGQGTMVIVSS
VL: QSVLTQPPSVSEAPRQRVTISCSGSSSNIGNNAVNWYQQLPGKAPKLLIYYDDLLPSGVSDRFSGSKSGTSASLAISGLQSEDEADYYCAAWDDRLNGPVFGGGTKLTVL
B5: the median fluorescence intensity, fold over isotype control (fold over isotype) in experiment [1] is 3.47 and 1.65; in experiment [2], 3.82; in experiment [3] it was 1.43.

B6: antibody 325 (antibody, V domains shown)
VH: QVQLQESGPGLVKPSQTLSLTCTVSGGSISGGGYYWSWIRQHPGKGLEWIGYIYYSGSTYYNPSLQSRVTISVDTSKNQFSLKLSSVTAADTAVYYCARVGTSSVWYFDYWGQGTLVTVSS
VL: QSALTQPRSVSGSPGQSVTISCTGTSSDVGGYNYVSWYQQHPGKAPKLMIYDVTKRPSGVPDRFSGSKSGNTASLTISGLQAEDEADYYCSSYAGSWVFGGGTKLTVL
In experiment [6], B6 had a median fluorescence intensity, fold over isotype control (fold over isotype) of 1.17.

B7: antibody 315 (antibody, V domains shown)
VH: QVQLVQSGSELKKPGASVKLSCQASGYSFTNHAMNWVRQAPGQGLEWMGWINTNTGNPTYAQGFTGRFVFSLDTSVSTTYLHISSLKAEDTAVYYCARASARPGVATNLDFWGQGTLVVVSS
VL: DIQMTQSPSSLSASVGDRVTITCRASQNIDNYLNWYQQKPGKAPKLLIYAASRLHSGVPSRFSGSGSGTDFTLIISSLQPEDLATYYCQQSYSNPLTFGPGTKVDIR
In turn, B7 registered a median fluorescence intensity, fold over isotype control (fold over isotype) in experiment [6] of 8.39.
